This is an account of results in patent publication US20240182556A1 (OPSIDIO, published 2024).

Changes are numbered by the printed parent chain. Numbers in names are those of the source.

The target in test [1] is T1, PE9413, C-terminal biotinylated peptide mapping on Exon6 of the SCF molecule (SCF248) (C-terminal biotin).
T1 construct: also called C-terminal biotinylated PE9413; C-ter PE9413
T1 peptide: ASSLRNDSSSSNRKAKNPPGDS
The experiment in a line: yeast-displayed scFv, flow cytometry titration of biotinylated peptide. Background: In flow cytometry, cells or beads pass a laser one at a time.

Test [2] deals with T1, PE9413, C-terminal biotinylated peptide …. The experiment in a line: yeast-displayed scFv, flow cytometry titration of biotinylated peptide (FIG. 16D). As for the experimental part:
Yeast display methods were conducted as described by Ferrara et al. Briefly, cells were induced in induction media overnight at 20° C. 10⁵ induced cells were washed twice with wash buffer (PBS supplemented with 0.5% BSA) and incubated at room temperature with the biotinylated antigen diluted in PBS. To assess binding of the scFv, a C-terminal biotinylated peptide mapping on Exon6 of the SCF molecule was used (referred to herein as “PE9413”). […] The induced yeast population was stained with biotinylated PE9413 at different concentrations ranging from 50 nM to 2 μM (0 nM, 50 nM, 100 nM, 250 nM, 500 nM, 750 nM, 1000 nM, or 2000 nM). Volumes and incubation times were carefully adjusted according to parameters described in [3]. After the incubation with the target peptide, the yeast cells were washed twice with cold wash buffer and subsequently incubated at 4° C. for an additional 30 minutes with fluorescently labelled streptavidin (Streptavidin-AlexaFlu633), to detect binding of the biotinylated PE9413, and with the labelled anti-SV5 (anti-SV5-PE), to detect the scFv display levels on yeast cells. Following 2 washes with cold yeast wash buffer, the cells were resuspended in cold PBS and analyzed in the flow cytometer (FIG. 1).
The FACS sorted population was sorted kinetically to find clones with an improved Koff compared to the parenteral scFv. […]

Test [3] has the same target. Description: yeast-displayed scFv, flow cytometry titration of biotinylated peptide. On the procedure: (§1) The binding of the selected 48 clones described above to 170 nM of C-terminal biotinylated PE9413 was evaluated. The 24 clones with the highest binding signal were further evaluated for binding affinity. Each clone was incubated with increasing amounts of biotinylated PE9413, and stained with a fluorescently labeled anti-streptavidin antibody. Binding of the clone to PE9413 was analyzed by flow cytometry. A plot of concentration of PE9413 versus the median fluorescent signal of the yeast cell population that bound to PE9413 was used to estimate the binding affinity (KD) of each clone to C-terminal biotinylated PE9413.

Test [4] addresses T2, N-terminal biotinylated PE9413 (not fully specified; N-terminal biotin).
T2 construct: also called PE9411; N-ter PE9413
T2 peptide: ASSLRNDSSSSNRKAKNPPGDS
Description: yeast-displayed scFv, flow cytometry titration of N-terminal biotinylated peptide. As for the experimental part:
The affinity of the 12 best clones for the N-terminal biotinylated target peptide […] was also evaluated. Each clone was incubated with increasing amounts of N-terminal biotinylated PE9413, and stained with a fluorescently labeled anti-streptavidin antibody. Binding of the clone to N-terminal biotinylated PE9413 was analyzed by flow cytometry. A plot of concentration of PE9413 versus the median fluorescent signal of the yeast cell population that bound to PE9413 was used to estimate the binding affinity (KD) of each clone to N-terminal biotinylated PE9413. The tested clones were confirmed to have improved affinities over the parental antibody 5H10 against the target sequence PE9413, regardless of the biotinylation modification, as reported in Table A3 and FIG. 12.

Test [5] concerns the target T1, PE9413, C-terminal biotinylated peptide …. Description: yeast-displayed scFv, flow cytometry titration of biotinylated peptide. As for the experimental part:
as §1, with “PE9413. […]” for “PE9413.”

B1: parental humanized 5H10 VK3/VH1 scFv (VH-linker-VL-SV5tag) displayed on yeast (scFv, V domains shown)
VH: QVQLVQSGAELKKPGSSVKISCKSSGYAFSSYWMNWVKQRPGQGLEWIGQIYPGDGDTHYNGKFKGKATLTADKSTSTAYMELSSLTSEDSAVYFCSSSNWVGSYWGQGTLVTVSS
VL: DVVMTQSPLSLPVTLGQPASISCKSSQSLLESDGKTYLNWLQQRPGQSPRRLIYLVSRLDSGVPDRFSGSGSGTDFTLKISRVEAEDVGVYYCWQGTHLPQTFGGGTKVEIK
notes: also called parental scFv; parental antibody; not shown: linker; SV5 tag
Consider B1, for which the Kd in test [1] was found to be 174 nM; in test [2] it was 232 nM.

B2: H83P scFv displayed on yeast (scFv, V domains shown)
VH: B1 VH with Y32Q, T58I, G62D
VL: B1 VL with K35N, S57D, H98D
notes: Aga2-anchored, VH-VL orientation; not shown: linker; SV5 tag
Take B2: the results for the Kd in test [3], in test [4] and in test [5] were 4.08 nM, 5.3 nM and 4.08 nM, respectively.

Broadly, the Kd is a measure of binding affinity in units of concentration. Lower therefore signals higher affinity.
